{
  "source": "paper PMC8927147",
  "about": "“Global profiling of regulatory elements in the histone benzoylation pathway” (Nature Communications, 2022)",
  "binders": {"B1": {"name": "Sas5_(YEATS), Q99314 K64P (protein)", "chain": "DHSIEVTFRVKTQQVIIPEQNIRGNELPLRRWQMELLMLDATGKEVEPTILSKCIYHLHSSFPQPKRRLNSLPFFIKETGWGEFNLKIECFFIGNAGKFSIEHDLTFEDDAYAVDYTVDVPHEFSHLNSELSKYFDLP"}, "B2": {"name": "Sas5_(YEATS), Q99314 L30H (protein)", "chain": "DHSIEVTFRVKTQQVIIPEQNIRGNELPHRRWQMELLMLDATGKEVEPTILSKCIYHLHSSFKQPKRRLNSLPFFIKETGWGEFNLKIECFFIGNAGKFSIEHDLTFEDDAYAVDYTVDVPHEFSHLNSELSKYFDLP"}, "B3": {"name": "Sth1BD, P32597 A1329C (peptide)", "chain": "TARKSTGGKAPRKQLASY"}},
  "key": {"H3K27bz peptide": {"target": "T1, H3K27bz peptide", "T1 chain": "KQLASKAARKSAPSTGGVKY", "assay": "ITC", "conditions": "chain shown with the change"}, "H3K14bz peptide": {"target": "T2, H3K14bz peptide", "T2 chain": "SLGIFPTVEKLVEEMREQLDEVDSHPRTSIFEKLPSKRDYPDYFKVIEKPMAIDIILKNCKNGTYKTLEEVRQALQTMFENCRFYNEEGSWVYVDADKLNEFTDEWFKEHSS", "assay": "ITC", "conditions": "chain shown with the change"}},
  "data": [
    {"binder": "B1", "values": [
      {"measurement": "Kd", "setting": "H3K27bz peptide", "value": 31.1, "unit": "µM"}
    ]},
    {"binder": "B2", "values": [
      {"measurement": "Kd", "setting": "H3K27bz peptide", "value": 369, "unit": "µM"}
    ]},
    {"binder": "B3", "values": [
      {"measurement": "Kd", "setting": "H3K14bz peptide", "value": 187, "unit": "µM"}
    ]}
  ]
}
